{
  "source": "IntAct's records for PubMed 20729554",
  "parents": {"B1": {"name": "Matrilin-1 (Homo sapiens), P21941 (parent)", "chain": "MRVLSGTSLMLCSLLLLLQALCSPGLAPQSRGHLCRTRPTDLVFVVDSSRSVRPVEFEKVKVFLSQVIESLDVGPNATRVGMVNYASTVKQEFSLRAHVSKAALLQAVRRIQPLSTGTMTGLAIQFAITKAFGDAEGGRSRSPDISKVVIVVTDGRPQDSVQDVSARARASGVELFAIGVGSVDKATLRQIASEPQDEHVDYVESYSVIEKLSRKFQEAFCVVSDLCATGDHDCEQVCISSPGSYTCACHEGFTLNSDGKTCNVCSGGGGSSATDLVFLIDGSKSVRPENFELVKKFISQIVDTLDVSDKLAQVGLVQYSSSVRQEFPLGRFHTKKDIKAAVRNMSYMEKGTMTGAALKYLIDNSFTVSSGARPGAQKVGIVFTDGRSQDYINDAAKKAKDLGFKMFAVGVGNAVEDELREIASEPVAEHYFYTADFKTINQIGKKLQKKICVEEDPCACESLVKFQAKVEGLLQALTRKLEAVSKRLAILENTVV"}},
  "data": [
    {"variants_of": "B1", "conditions": "with co2a1_bovin COL2A1, P02459", "values": [
      {"variant": "N76A", "effect of a mutation on the interaction": "increasing interaction strength"}
    ]},
    {"variants_of": "B1", "conditions": "with co2a1_bovin COL2A1, P02459", "remark": "another data set of the same source", "values": [
      {"variant": "N344A", "effect of a mutation on the interaction": "with no effect"}
    ]}
  ]
}
